Reference: the nanobody polyreactivity screen of Harvey et al. (2022)

assay: yeast display, Sf9 membrane polyspecificity reagent, FACS + sequencing; frameworks hold sequencing errors
Method in brief: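 Nanobodies from a synthetic yeast display library (Saccharomyces cerevisiae BJ5465), induced 36–48 hours with galactose, were stained 1 hour at 4 °C with 10% biotinylated, detergent-solubilized Sf9 membrane reagent, enriched on streptavidin microbeads, then FACS-sorted. Anti-HA (expression) and streptavidin (reagent binding) fluorescence set low and high (top ~1%) gates. Polyreactivity labels come from the gate of origin. Genes were colony-PCR amplified, MiSeq 2 × 250 sequenced and filtered by CDR length.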

Sequence	polyreactivity (PSR sort gate)
QVQLVESGGGLVQAGGSLRLSCAASGFTFTRYAMGWYRQAPGKERELVAAIRWSGGRTYYADSVKGRFTISRDNAKNTVYLQMNSLKPEDTAVYYCYAVFYDPRREYDYWGQGTQVTVSS	high polyreactivity
QVQLVESGGGLVQAGGSLRLSCAASGFTFTRYAMGWYRQAPGKERELVAAITTNSGSRTYYADSVKGRFTISRDNAKNTVYLQMNSLKPEDTAVYYCAADGPVVRGYYWGQGTQVTVSS	high polyreactivity
QVQLVESGGGLVQAGGSLRLSCAASGFTFTRYAMGWYRQAPGKERELVAVITYSGDTSYADSVKGRFTISRDNAKNTVYLQMNSLKPEDTAVYYCAVERAYYSDTGRYGYDYWGQGTQVTVSS	high polyreactivity
QVQLVESGGGLVQAGGSLRLSCAASGFTFTSFAMGWYRQAPGKERELVAAISARGGRTNYADSVKGRFTISRDNAKNTVYLQKNSLKPEDTAVYYCAADGFRAAYLYDYWGQGTQVTVSS	high polyreactivity
QVQLVESGGGLVQAGGSLRLSCAASGFTFTYNTMGWYRQAPGKERELVAAISRSGGSTYYADSVKGRFTISRDNAKNTVYLQMNSLKPEDTAVYYCAKQRRDYNGGYWGQGTQVTVSS	high polyreactivity
QVQLVESGGGLVQAGGSLRLSCAASGFTFTYYAMGWYRQAPGKERELVAAISWSGDSTYYADSVKGRFTISRDNAKNTVYLQMNSLKPEDTAVYYCATEYSHTYDYWGQGTQVTVSS	low polyreactivity
QVQLVESGGGLVQAGGSLRLSCAASGFTFTYYAMGWYRQAPGKERELVAVISSAGSTYYADSVKGRFTISRDNAKNTVYLQMNSLKPEDTAVYYCNAVGRYYSSGRYGHWGQGTQVTVSS	high polyreactivity
QVQLVESGGGLVQAGGSLRLSCAASGFTFTYYTMGWYRPAPGKERELVAGISRSGGSTYYADSVKGRFTISRDNAKNTVYLQMNSLKPEDTAVYYCFPGKTRLYGYWGQGTQVTVSS	high polyreactivity
QVQLVESGGGLVQAGGSLRLSCAASGFTFTYYVMGWYRQAPGKDRELVAAISQGGGSTYYADSVKGRFTISRDNAKNTVYLQMNSLKPEDTAVYYCAARRVGYGTDRYYGYDSWGQGTQVTVSS	high polyreactivity
QVQLVESGGGLVQAGGSLRLSCAASGFTFVAYAMGWYRPAPGKERELVAAIRRTDTSTYYADSVKGRFTISRDNAKNTVYLQMNSLKPEDTAVYYCAADYWRRTYLGFDYWGQGTQVTVSS	low polyreactivity
QVQLVESGGGLVQAGGSLRLSCAASGFTFVGYAIGWYRQAPGKERDMVAAITRRGGSTYYADSVKGRFTISRDNAKNTVYLQMNSLKPEDTAVYYCNKSSYRISVPRYDYWGQGTQVTVSS	high polyreactivity
QVQLVESGGGLVQAGGSLRLSCAASGFTFVINDMGWYRQAPGKERELVADITSGGDTYYADSVKGRFTISRDNAKNTVYLQMNSLKAEDTAVYYCAADIYPDWIYLLYGYWGQGTQVTVSS	low polyreactivity
QVQLVESGGGLVQAGGSLRLSCAASGFTFVKNAMGWYRQAPGNERELVAAISQSGGSTYYADSVKGRFTISRDNAKNTVYLQMNSLKPEDTAVYYCAATYYTYWGYRDYYWGQGTQVTVSS	high polyreactivity
QVQLVESGGGLVQAGGSLRLSCAASGFTFVLYAMGWYRQAPGKERELVADITEGGDNTYYADSVKGRFTISRDNAKNTVYLQMNSLKPEDTAVYYCNARASRLYPPYDYWGQGTQVTVSS	high polyreactivity
QVQLVESGGGLVQAGGSLRLSCAASGFTFVNNAMGWYRQAPGKERELVAAISGGGTTNYADSVKGRFTISRDNAKNTVYLQMNSLKPEDTAVYYCAARRYFGLWYFWYDYWGQGTQVTVSS	high polyreactivity
QVQLVESGGGLVQAGGSLRLSCAASGFTFVNYAMGWYRQAPGKERELVAAISFRSARTYYADSVKGRFTISRDNAKNNVYLQMNSLKPEDTAVYYCAARVSRRFDYWGQGTQVTVSS	high polyreactivity
QVQLVESGGGLVQAGGSLRLSCAASGFTFVPYAMGWYRQAPGKEREFVATISWSAGRTYYADSVKGRFTISRDNAKNTVYLQMNSLKPEDTAVYYCNARQWCQRYSKVRYDFWGQGTQVTVSS	high polyreactivity
QVQLVESGGGLVQAGGSLRLSCAASGFTFVQYAMGWYRQAPGKERELVATISKSGGITYYADSVKGRFTISRDNAKNTVFLQMNSLKPEVTAVYYCAAAWYYSSRGFHATWGHDYWGQGTQVTVSS	low polyreactivity
QVQLVESGGGLVQAGGSLRLSCAASGFTFVRNALGWYRPAPGKERELVAAITDAGRTTYADSVKGRFTISRDNAKNTVYLQMNSLKPEDTAVYYCAKGKWWGWPWYSMDYWGQGTQVTVSS	low polyreactivity
QVQLVESGGGLVQAGGSLRLSCAASGFTFVRYAMGWYRQAPGKDRELVAAISKSGGRTYYTDSVKGRFTISRDNAKTTVYLQMNSLKPEDTAVYYCAADPVSDYYGYGYWGQGTQVTVSS	high polyreactivity
QVQLVESGGGLVQAGGSLRLSCAASGFTFVSNAMGWYRQAPGKERELVAAITYSGTRTYYADSVKGRFTISRDNAKNTVYLQMNSLKPEDTAVYYCAARRGYASAYYYWGQGTQVTVSS	high polyreactivity
QVQLVESGGGLVQAGGSLRLSCAASGFTFVSNAMVWSRQAPGKERELVADITSDGSTNYADSVKGRFTISRDNAKNTVYLQMNSLKPEDTAVYHCATDQRSNTWVNQFDYWGQGTQVTVSS	low polyreactivity

Sequence	polyreactivity (PSR sort gate)
QVQLVESGGGLVQAGGSLRLSCAASGFTFVSYAMGWYRQAPGKERELVAAISSRVVSTYYADSVKGRFTISRDNAKNTVYLQMNSLKPEDTAVYYCATDRYAYKLYDYWGQGTQVTVSS	low polyreactivity
QVQLVESGGGLVQAGGSLRLSCAASGFTFVSYAMGWYRQAPGKERELVAVIDNSDGDTYYADSVKGRFTISRDNAKNTVYLQMNSLKPEDTAVYYCAADAVIEWTDWYSAWWYYYWGQGTQVTVSS	low polyreactivity
QVQLVESGGGLVQAGGSLRLSCAASGFTFVVNAMAWYRQAPGKEREFVAAIRQSGGSTYYADSVKGRFTISRDNAKNTVYLQMNSLKPEDTAVYYCNAEDWGYGYDYWGQGTQVTVSS	low polyreactivity
QVQLVESGGGLVQAGGSLRLSCAASGFTFVVYAMGWYRQAPGKERELVAAIRRTGGSTYYADSVKGRFTISRDNAKNTVYLQMNSLKPEDTAVYYCAAHAISYQSRYRYRYGSVDYWGQGTQVTVSS	high polyreactivity
QVQLVESGGGLVQAGGSLRLSCAASGFTFVYYAMGWYRQAPGKEREFAYYADSVKGRFTISRDNAKNTVYLQMNSLKPEDTAVYYCNAAEDEGDRPITQVGYDYWGQGTQVTVSS	low polyreactivity
QVQLVESGGGLVQAGGSLRLSCAASGFTFVYYAMGWYRQAPGKERELVAAISRGGSTYYADSVKGRFTISRDNAKNTVYLQMNSLKPEDTAVYYCNAKKSGHYVSYPAYDYWGQGTQVTVSS	low polyreactivity
QVQLVESGGGLVQAGGSLRLSCAASGFTFVYYTMGWYRQAPGKERELVAAITSGGRTYYADSVKGRFTISRDNAKNTVYLQMNSLKPEDTAVYYCAAPDRYRGYIGYGYWGQGTQVTVSS	high polyreactivity
QVQLVESGGGLVQAGGSLRLSCAASGFTFWAYAMGWYRQAPGKERELVAAISGSGGNTYYADSVKGRFTISRDNAKNTVYLQMNSLKPEDTAVYYCAVEDAGQGGDYWGQGTQVTVSS	low polyreactivity
QVQLVESGGGLVQAGGSLRLSCAASGFTFWAYAMGWYRQAPGKERELVAVISGSGGRTYYADSVKGRFTISRDNAKNTVYLQMNSLKPEDTAVYYCNARYPRLHRTYNYWGQGTLVTVSS	high polyreactivity
QVQLVESGGGLVQAGGSLRLSCAASGFTFWDNAMGWYRQAPGKERELVAAISRRGGTTYYADSVKVRFTISRDNAKNTVYLQMNSLKPEDTAVYYCNKAFSLQIYATGMGYWGQGTQVTVSS	high polyreactivity
QVQLVESGGGLVQAGGSLRLSCAASGFTFWDYDLGWSRQATGKERELVAAISDNDGSTDYADSVKGRITISRDNVKNTVFLQMNRLKPEESAVYYCNAEIEMPSKEGDYWGLGTQVTVSS	low polyreactivity
QVQLVESGGGLVQAGGSLRLSCAASGFTFWDYTMGWYRQAPAKERELVAAINRGGNTYYADSVKGRFTISRDNAKNTVYLQMNSLKPEDSADYYCAARRRSRQYRYDYWGQGTQVTVSS	high polyreactivity
QVQLVESGGGLVQAGGSLRLSCAASGFTFWGNAMGWYRQAPGKERELVAAISRSGGRTYYADSVKGRFTISRDNAKNTVYLQMNSLKPEDTAVYYCAAGSSHHFDYEGGYWGQGTQVTVSS	low polyreactivity
QVQLVESGGGLVQAGGSLRLSCAASGFTFWKYAMGWYRQAPGKEREFVPAISWSGGNTYYADSVKGRFTISRDNAKNTVYLQMNSLKPEDTADYYCARRGRYYLYTDDYDYWGQGTQVTVSS	high polyreactivity
QVQLVESGGGLVQAGGSLRLSCAASGFTFWKYSMGWYRQAPGKERELVATITSSGDNTYYADSVKGRFTISRDNAKNTVYLQMNSLKPEDTAVYYCAADNGYHYNFDYWGQGTQVTVSS	low polyreactivity
QVQLVESGGGLVQAGGSLRLSCAASGFTFWLYAMGWYRQAPGKERELVAAIDWDGGTYYADSVKGRFTISRDNAKNTVYLQMNSLKPEDTAVYYCAARYRYYYTRYDYWGQGTQVTVSS	high polyreactivity
QVQLVESGGGLVQAGGSLRLSCAASGFTFWLYSMGWDRQAPGKEREFVAAISTSGGSTYADSVKGRFTISRDNAKNTVYLLMNSLKPEDTAVYYCAGVYTYPLGYYHYTYDYWGQGTQVTVSS	low polyreactivity
QVQLVESGGGLVQAGGSLRLSCAASGFTFWLYSMGWYRQAPGKERELVAAISWSGGSTYYADSVKGRFTISRDNAKNTVYFQMNSMKPEDPAVYYCAAVKYVRCAEFYYWGQGTQVTVSS	high polyreactivity
QVQLVESGGGLVQAGGSLRLSCAASGFTFWLYTMGWYRQAPGKERELVAAISWSGGSTYYADSVKGRFTISRDTAKNTVYLQMNSLKPEDTAVYYCNALYVGYYDSMGYWGQGTQVTVSS	high polyreactivity
QVQLVESGGGLVQAGGSLRLSCAASGFTFWQYAMGWNRQAPGKERELVAAITWDVGSTYYSDSVKGRFTISRDNAKNTVYLQLNSLKPEDTAVYYCAKLIGGTYYEDDYWGQGSQVTVSS	low polyreactivity
QVQLVESGGGLVQAGGSLRLSCAASGFTFWQYAMGWYRQAPGKERELGAAITWDGGSTYYADSVKGRFTISRDTAKNTVYLQMNSLKPEDTAVYYRAKLFGGTYYEYDYWGQGTQVTVSS	low polyreactivity
